The source of these data is patent US20190032056A1 (VITRISA THERAPEUTICS, published 2019).

The target of this assay is complement Factor D present in C1q-depleted human serum (human, UniProt P00746 26-253). Kind of assay: cell-based or functional assay.
Chain of complement Factor D present in C1q-depleted human serum (P00746 26-253 limits assumed): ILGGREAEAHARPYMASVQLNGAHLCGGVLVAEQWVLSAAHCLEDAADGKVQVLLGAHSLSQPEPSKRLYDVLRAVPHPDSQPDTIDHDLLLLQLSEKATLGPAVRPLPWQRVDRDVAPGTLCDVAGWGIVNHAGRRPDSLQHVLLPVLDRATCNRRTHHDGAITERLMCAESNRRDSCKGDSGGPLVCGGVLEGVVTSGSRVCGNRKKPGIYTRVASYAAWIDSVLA

B1: anti-fD Fab with an amino acid sequence of heavy chain variable region according to SEQ ID NO:7 and light chain variable region according to SEQ ID NO:8 (Fab)
heavy: EVQLVQSGPELKKPGASVKVSCKASGYTFTNYGMNWVRQAPGQGLEWMGWINTYTGETTYADDFKGRFVFSLDTSVSTAYLQISSLKAEDTAVYYCERGGVNNWGQGTLVTVSSASTKGPSVFPLAPSSKSTSGGTAALGCLVKDYFPEPVTVSWNSGALTSGVHTFPAVLQSSGLYSLSSVVTVPSSSLGTQTYICNVNHKPSNTKVDKKVEPKSCDKTHT
light: DIQVTQSPSSLSASVGDRVTITCITSTDIDDDMNWYQQKPGKVPKLLISGGNTLRPGVPSRFSGSGSGTDFTLTISSLQPEDVATYYCLQSDSLPYTFGQGTKVEIKRTVAAPSVFIFPPSDEQLKSGTASVVCLLNNFYPREAKVQWKVDNALQSGNSQESVTEQDSKDSTYSLSSTLTLSKADYEKHKVYACEVTHQGLSSPVTKSFNRGEC
Regarding B1, the “IC50 inhibiting alternative complement in human serum (fD-dependent lysis of rabbit red blood cells)” value stood at 3.3 nM.
